# Results as given in the DeepSol protein solubility set.
# Experiment: soluble on expression in E. coli; label from the status in PepcDB or PDB records
row,Sequence,soluble on expression in E. coli
1,MTFHYPNGIPYNHHEAQSPKKQVKKKRPVEFGNRGMDFEEAINQSNQYYLLNKQAVVHKKPTPVQIVKVDYPKRSAAVIKEAYFRQASTTDYNGVYQGRYIDFEAKETKNTTSFPFKNFHQHQIDHMEQCIAQQGICFVLLWFSSLKRCFFFSGENLITHWKNQAVTGKKSMPLALIEKEGIELSFGIAPRIPYLDAVEQYIQTH,not soluble
2,MGSDKIHHHHHHLTLSIEHLTGGYTQTPVIKDINFEVKNGELLGLIGLNGAGKSTTINHVIGLMRPMKGKIILDEIDLEQNPTQYKTKLAYIPELPILYDELTLKEHIELTIKAYEMNSEKAWQQAHKLLKTFRLENKLDWFPANFSKGMRQKVMIVCAFITDAELFVVDEPFLGLDPLAIDDLLKVINEKKQQGASILMSTHVLDTAEKYCDRFALLNEGELKAVGTLADFQKQFNLPNSSLNDIYLTIAKGERDE,not soluble
3,MGSDKIHHHHHHMNSKIYYFSGTGNSLVVSNILKETLNGSKEVIPLAIHRKENNIDINEDILVIVFPVYFADVPDIVKSFVEKLNFNINTHIYAIATCNGVAGHSLFTIDKLLKKRGKKLSAGFLINMPGNALITPPDVEEERLKNQTNRVAEIAKCINNLEIGNIEGKNNLKSHIDSVVLRLVGKNMQIATTKFFAENKCNGCGTCKRVCPVENISIVDKKPKWGNECERCLACFHWCPKEAINVKKSFLTNRKKYHHPDITVKDIFLDK,not soluble
4,MGSDKIHHHHHHMSKIVEVSKSPYAKLKTIPVGSVRVNGFMGKYFETLVNVTLPTQYDLLENTGRLDNFRIAAGKMEGSYKTLFPFDDTDVYKWAETVSFALANRKLPELEKILDSVIEEVKAAQDEDGYLGTYLSGDRKKERWTNLAWNHELYNAGHLIQAAVAHRRVTGKNTLFEVAKRFADHIYNTFGPEKKEGAPGHPEVEMALVELYRETGDRKYLDLARYFIYARGKGLASVPRNPGPEYFIDHKPFVELEEITGHAVRALYLCSGATDLYLETGDEKIWQALNRLWENFVTKKMYITGGAGSRHDWESFGEEYELPNRRSYAESCASIANFMWNFRMLLATGDGKFADVMEQVLYNGLLSGISLDGKHYFYFNPLEDYGRTRRQKWFDCACCPPNLARFIVSFPGYMYTTSDDGVQVHLYEKSTARLDFKGSVVEIEQETDYPWSGEVAFTIKTDIEEPFSIYLRLPSWADDFVLRVDGKAVIAKPQNGYVKLSQSWKGKHTVELSLPMKAVFIEAHPFVRDDLGKAAVKRGPVVYCIEQADNPDFHVWTLVLNSESLKEEKGKILDREAVFLKGTGRALDISEWEGKLYRKLSEVREKTVEFTLIPYHMWANREPGAMAVWLKR,not soluble
5,KVLGDGSYLFEGKTSLSDVRHYLDLPENAFGELGDEVDTLSGLFLEIKQELPHVGDTAVYEPFRFQVTQMDKRRIIEIKIFPFERTWEVE,not soluble
6,MSLDARKNNVTIKVGMIGDSSIGKTSLMVTYVQGSFDEESTQTLGVNFMEKTISIRNTEITFSIWDLGGQREFVNMLPMVCNDAVAILFMFDLSRKSTLNSIKEWYRQARGFNKTAVPILIGTKYDHFMTFPREDQEEITKQARRYAKAMKASLVFCSTSHSINVQKIFKIVLAKVFDLKCTIPEIKNVGDPILEYIDREGHHHHHH,soluble
7,RYNGLTLRSVFQPIFDKQHQVVGAEALVRIFTQHHTQIRPDLFFHSETFADDDKLNVERLSRAIHIRNFSLSPYRDTRLFLNVLPVAGEQFAYCDISSTLLATRLAELNIPHHRVVMELVEIESGDEGMLQMATEKLVANGFQIAIDDFGCKASTPERVAMLRPNIIKLDRQLLLDFMAGDCCGLLAGVQLAQKTGAHTVVEGIETAEQLAAMQKLDINMYQGYYLALPEGIAQTAKVANAN,not soluble
8,MAVLWRLSAVCGALGGRALLLRTPVVRPAHISAFLQDRPIPEWCGVQHIHLSPSHHSGSKAASLHWTSERVVSVLLLGLLPAAYLNPCSAMDYSLAAALTLHGHWGLGQVVTDYVHGDALQKAAKAGLLALSALTFAGLCYFNYHDVGICKAVAMLWKL,not soluble
9,MSLFRIQLRTMSSKTCKSDYPKEFVSFLNSSHSPYHTVHNIKKHLVSNGFKELSERDSWAGHVAQKGKYFVTRNGSSIIAFAVGGKWEPGNPIAITGAHTDSPALRIKPISKRVSEKYLQVGVETYGGAIWHSWFDKDLGVAGRVFVKDAKTGKSIARLVDLNRPLLKIPTLAIHLDRDVNQKFEFNRETQLLPIGGLQEDKTEAKTEKEINNGEFTSIKTIVQRHHAELLGLIAKELAIDTIEDIEDFELILYDHNASTLGGFNDEFVFSGRLDNLTSCFTSMHGLTLAADTEIDRESGIRLMACFDHEEIGSSSAQGADSNFLPNILERLSILKGDGSDQTKPLFHSAILETSAKSFFLSSDVAHAVHPNYANKYESQHKPLLGGGPVIKINANQRYMTNSPGLVLVKRLAEAAKVPLQLFVVANDSPCGSTIGPILASKTGIRTLDLGNPVLSMHSIRETGGSADLEFQIKLFKEFFERYTSIESEIVVEGHHHHHH,soluble
10,MAEQSDEAVKYYTLEEIQKHNHSKSTWLILHHKVYDLTKFLEEHPGGEEVLREQAGGDATENFEDVGHSTDAREMSKTFIIGELHPDDRPKLNKPPEP,soluble
11,RSLTMTLEELMNAPAPASRWVLERDCAETGLDPADIRAEMLRRIGEMRSSVERGLQSDARSITGMVGWNAKGLWDAPDVLGAPLLKRVQAYAMAVNEENARMGRIVAAPTAGSAGTIPGALLGVADHLGLSDEQLVDPMILAAGVGKAISKRMFISGAAGGCQAE,not soluble
12,SAVERVEILRDGAAAQYGSDAIAGVVNIILKAKSTGGGIAYQYGGYTQGDGDQQKILGWKSFALPNDGSVTVAFDAGKRDAANNTLPDSRKFYNSSSSTNAQYNDQNTPYRTWRFGSPEIKDQINLSYNADLPLADDTSLYSFGTYGHRKTIGEGFYEPSTATAAVNQSIYYKERYPDGRIPLSIVTVDDFALTAGAKKGDQKTGKLDGFVTYGRNKVHTDQDNGINPSYGSGSPSSYSLGDNIFSQLNTGLDYSLDANTSWFYHPITVSTGILYRWEQYQQVAGDPVAYTRGPYYNVTTAPEIYSGITDADQRKIDRNVYGAYLDLETEIVKDLNVGVALRSEKYSDFGNTTNGKLTLKYDFDPKLNLRGSASTGYRAPS,not soluble
13,MFVRLFYTLRKYGVPVTTRELIDLNRAVAEGLVFADQDEFYQLAKTILVKDERFFDKFDRAIKDYFEGIETFDLDELLKQVQKIPKEWLDLELLEKHLTPEQREALQKAGSLEELMKMLEERLREQHKKHQGGNRMIGTGGTSPFGAFGDHPEGVRIGGPGRKRSAVKVWEQRKYQNLDDDQILGTRQMQLALRRLRKFARQGAADELDVDNTIRETAKQGILNVQMVPERRNRIKVLMLFDVGGSMDSHIAQCEKLFSAAKTEFKTLEYFYFHNCLYDYVWKDNHRRQASRLETWDLFHKYGRDYRVIVVGDASMAPYELRSAGGSVEYMNDEAGEIWLRRLRQHFDKTAWLNPEEEGYWKYTQTIGLIQQLFENHMYPMSLKGIEDMTRYLS,not soluble
14,TVRLMVDLRHHAAMLEEENDERTRAEQKLAETNVFLNSVVDGVAEPMVVVGLDRRVIMTNRAARDFFQISDVGSDEACHRLIHHRDTPCVREEGMQCPLLDVRTAKRPVIATQEHRDRSGDKRVVEVMTSPLLGSD,not soluble
15,MAHHHHHHHRSDASVIVVGAGPAGLMLAGELRLGGVDVMVLEQLPQRTGESRGLGFTARTMEVFDQRGILPAFGPVETSTQGHFGGRPVDFGVLEGAHYGVKAVPQSTTESVLEEWALGRGAELLRGHTVRALTDEGDHVVVEVEGPDGPRSLTTRYVVGCDGGRSTVRKAAGFDFPGTSASREMFLADIRGCEITPRPIGETVPLGMVMSAPLGDGVDRIIVCERGAPARRRTGPPPYQEVAAAWQRLTGQDISHGEPVWVSAFGDPARQVSAYRRGRVLLAGDSAHVHLPAGGQGMNVSVQDSVNLGWKLAAVVSGRAPAGLLDTYHEERHPVGRRLLMNTQAQGMLFLSGDEMQPLRDVLSELIRYDEVSRHLAGMVSGLDIRYEVDGGDHPLLGMRMPHQELVRAHGKTSTTELLHPARGVLLDIADDAEVREAATGWSDRVDIVTASLHDAPPQGPLSDARAVLVRPDGYVAWISPGSRAGLTEALDRWFGPAR,soluble
16,NVPVGMSIGVYDYELSDYAERMDAISGGAIRSSFARNGGIGFDIGASLQIGYMIKFTDSIGLSILAEAGYSHDTYSYISRLDKNNSYSYSFESLQLGVIPKFNIKNFAIGIGGGVKIPLAGNIHTKTSLFESNTKLTSDDIKRLYEKALMPYIKVTFDYSIFFTQKTAFNIGLYLGYDFGLEPNIYTVDGAIDGNRLVVDEVSYSSFDVGLQVGLKFGPSTK,not soluble
